Results: US20230374084A1, “POTENT AND SELECTIVE INHIBITORS OF NAV1.7” (ALDEVRON, LLC, priority 2020, published 2023)
Marks after values point to notes of the source that are not given here.

Legend:
Type in all cases: cell-based
[1] = molecular target: T1, NaV1.7 (Homo sapiens, UniProt Q15858); test: Patch-clamp electrophysiology of HEK-NaV1.7 stable cells; conditions: HEK-NaV1.7 cells, 500 nM peptide
T1 construct: expressed in transfected cells; host or cells: HEK293 (human embryonic kidney) cells stably expressing NaV1.7
Experimental: HEK-NaV1.7 stable cell lines were plated at low density on glass cover slips for 3-4 hours and subsequently transferred to the recording chamber. Recordings were performed at room temperature (20-22° C.) […] using a MultiClamp 700B amplifier (Molecular Devices, Sunnyvale, CA). The composition of recording solutions consisted of the following salts: extracellular (mM): 140 NaCl, 3 KCl, 1 MgCl2, 1 CaCl2), 10 HEPES, 10 glucose, pH 7.3; intracellular (mM): 130 CH3O3SCs, 1 EGTA, 10 NaCl, 10 HEPES, pH 7.3. Membrane capacitance and series resistance were estimated by the dial settings on the amplifier and compensated for electronically by 70-80%. Data were acquired at 20 kHz and filtered at 5 kHz prior to digitization and storage. All experimental parameters were controlled by Clampex 9.2 software (Molecular Devices) and interfaced to the electrophysiological equipment using a Digidata 1200 analog-digital interface (Molecular Devices). Voltage-dependent inward currents for HEK-NaV1.7 cells were evoked by depolarizations to test potentials between −100 mV and +60 mV from a holding potential of −70 mV followed by a voltage pre-step pulse of −120 mV (NaV1.7). Steady-state (fast) inactivation of NaV channels was measured with a paired-pulse protocol. From the holding potential, cells were stepped to varying test potentials between −120 mv (Nar 1.7) and +20 mV (pre-pulse) prior to a test pulse to −20 mV.
Current densities were obtained by dividing Na+ current (INa) amplitude by membrane capacitance. Current-voltage relationships were generated by plotting current density as a function of the […]. Conductance (GNa) was calculated by the following equation:
GNa=INa/(Vm−Erev) • where INa is the current amplitude at voltage Vm, and Erev is the Na^+ reversal potential.
To test whether given peptides (10 in total, listed below) had modulatory effects on NaV1.7-mediated Na^+ currents, we used patch-clamp electrophysiology of human embryonic kidney cells stably expressing NaV1.7 (HEK-NaV1.7).

[2] = molecular target: T2, NaV1.6 (Homo sapiens, UniProt Q9UQD0); test: Whole-cell patch-clamp electrophysiology in HEK293 cells stably expressing NaV1.6 (HEK-NaV1.6); conditions: for effect on NaV1.6 currents / Peak current density, Nav1.6 (Treatment): HEK-NaV1.6 cells; for effect on NaV1.6 currents: 500 nM peptide vs control; for Peak current density, Nav1.6 (Treatment): mean ± SEM (n)
T2 construct: expressed in transfected cells; host or cells: HEK293 cells stably expressing NaV1.6
Experimental: HEK-NaV1.6 cells were plated at low density on glass cover slips for 3-4 hours and subsequently transferred to the recording chamber. Recordings were performed at room temperature (20-22° C.) after 48 h to thaw them using a MultiClamp 200B and 700B amplifier (Molecular Devices, Sunnyvale, CA). The composition of recording solutions consisted of the following salts; extracellular (mM): 140 NaCl, 3 KCl, 1 MgCl2, 1 CaCl2), 10 HEPES, 10 glucose, pH 7.3; intracellular (mM): 130 CH3O3SCs, 1 EGTA, 10 NaCl, 10 HEPES, pH 7.3. Membrane capacitance and series resistance were estimated by the dial settings on the amplifier and compensated for electronically by 70-75%. Data were acquired at 20 kHz and filtered at 5 kHz prior to digitization and storage. All experimental parameters were controlled by Clampex 9.2 software (Molecular Devices) and interfaced to the electrophysiological equipment using a Digidata 1200 analog-digital interface (Molecular Devices). Voltage-dependent inward currents for HEK-NaV 1.6 cells were evoked by depolarization to test potentials between −100 mV and +60 mV from a holding potential of −70 mV followed by a voltage pre-step pulse of −120 mV (Nar 1.6).
(§1) Current densities were obtained by dividing Na^+ current (INa^+) amplitude by membrane capacitance. Current-voltage relationships were generated by plotting current density as a function of the […].
(§2) Statistics were calculated as mean and standard error of the mean (mean SEM) using Prism 7 (La Jolla, CA). The statistical significance of observed differences among groups was determined by Student's t-test or for two group comparisons significance was tested with unpaired. Electrophysiological data analysis was performed using Clampfit 9 software (Molecular Devices).
To test whether Peptide 1, 3, 7 and 8 had any modulatory effects on NaV 1.6-mediated Na^+ currents, we used whole-cell patch-clamp electrophysiology in HEK293 cells stably expressing NaV1.6 (HEK-NaV1.6) channels; each group was either treated with peptides 1, 3, 7 and 8 (500 nM from a stock solution dissolved in H2O or DMSO) or H2O and 0.1% DMSO alone (control). […] However, peptide 7 potentiates the NaV1.6-mediated transient Na^+ currents (INa+), and were not statistically different compared to control (FIG. 17 A-C and Table 1).

[3] = molecular target: T3, human NaV1.5 channel (Homo sapiens, UniProt Q14524); test: Whole-cell patch-clamp electrophysiology in HEK293 cells stably expressing NaV1.5 (HEK-NaV1.5); conditions: HEK-NaV1.5 cells, 500 nM peptide vs control
T3 construct: expressed in transfected cells; host or cells: HEK293 cells stably expressing human NaV1.5 (G418 selection)
Experimental: HEK293 cells were maintained in DMEM and F-12 (Invitrogen, Carlsbad, CA), supplemented with 0.05% glucose, 0.5 mM pyruvate, 10% fetal bovine serum, 100 units/ml penicillin, and 100 μg/ml streptomycin (Invitrogen), and incubated at 37° C. with 5% CO2. HEK293 cells stably expressing the human NaV1.5 channel (hereafter referred to as HEK-NaV1.5 cells) were maintained similarly except for the addition of 500 μg/ml G418 (Invitrogen) to maintain stable NaV 1.5 expression. Cells were grown to 80-90% confluence, washed and re-plated at very low density prior to electrophysiological recordings.
as §1, §2
To test whether Peptide 1, 3, 7 and 8 had any modulatory effects on NaV 1.5-mediated Na^+ currents, we used whole-cell patch-clamp electrophysiology in HEK293 cells stably expressing NaV1.5 (HEK-NaV1.5) channels; each group was either treated with peptides 1, 3, 7 and 8 (500 nM from a stock solution dissolved in H2O or DMSO) or H2O and 0.1% DMSO alone (control).

T1 sequence (Q15858 whole entry): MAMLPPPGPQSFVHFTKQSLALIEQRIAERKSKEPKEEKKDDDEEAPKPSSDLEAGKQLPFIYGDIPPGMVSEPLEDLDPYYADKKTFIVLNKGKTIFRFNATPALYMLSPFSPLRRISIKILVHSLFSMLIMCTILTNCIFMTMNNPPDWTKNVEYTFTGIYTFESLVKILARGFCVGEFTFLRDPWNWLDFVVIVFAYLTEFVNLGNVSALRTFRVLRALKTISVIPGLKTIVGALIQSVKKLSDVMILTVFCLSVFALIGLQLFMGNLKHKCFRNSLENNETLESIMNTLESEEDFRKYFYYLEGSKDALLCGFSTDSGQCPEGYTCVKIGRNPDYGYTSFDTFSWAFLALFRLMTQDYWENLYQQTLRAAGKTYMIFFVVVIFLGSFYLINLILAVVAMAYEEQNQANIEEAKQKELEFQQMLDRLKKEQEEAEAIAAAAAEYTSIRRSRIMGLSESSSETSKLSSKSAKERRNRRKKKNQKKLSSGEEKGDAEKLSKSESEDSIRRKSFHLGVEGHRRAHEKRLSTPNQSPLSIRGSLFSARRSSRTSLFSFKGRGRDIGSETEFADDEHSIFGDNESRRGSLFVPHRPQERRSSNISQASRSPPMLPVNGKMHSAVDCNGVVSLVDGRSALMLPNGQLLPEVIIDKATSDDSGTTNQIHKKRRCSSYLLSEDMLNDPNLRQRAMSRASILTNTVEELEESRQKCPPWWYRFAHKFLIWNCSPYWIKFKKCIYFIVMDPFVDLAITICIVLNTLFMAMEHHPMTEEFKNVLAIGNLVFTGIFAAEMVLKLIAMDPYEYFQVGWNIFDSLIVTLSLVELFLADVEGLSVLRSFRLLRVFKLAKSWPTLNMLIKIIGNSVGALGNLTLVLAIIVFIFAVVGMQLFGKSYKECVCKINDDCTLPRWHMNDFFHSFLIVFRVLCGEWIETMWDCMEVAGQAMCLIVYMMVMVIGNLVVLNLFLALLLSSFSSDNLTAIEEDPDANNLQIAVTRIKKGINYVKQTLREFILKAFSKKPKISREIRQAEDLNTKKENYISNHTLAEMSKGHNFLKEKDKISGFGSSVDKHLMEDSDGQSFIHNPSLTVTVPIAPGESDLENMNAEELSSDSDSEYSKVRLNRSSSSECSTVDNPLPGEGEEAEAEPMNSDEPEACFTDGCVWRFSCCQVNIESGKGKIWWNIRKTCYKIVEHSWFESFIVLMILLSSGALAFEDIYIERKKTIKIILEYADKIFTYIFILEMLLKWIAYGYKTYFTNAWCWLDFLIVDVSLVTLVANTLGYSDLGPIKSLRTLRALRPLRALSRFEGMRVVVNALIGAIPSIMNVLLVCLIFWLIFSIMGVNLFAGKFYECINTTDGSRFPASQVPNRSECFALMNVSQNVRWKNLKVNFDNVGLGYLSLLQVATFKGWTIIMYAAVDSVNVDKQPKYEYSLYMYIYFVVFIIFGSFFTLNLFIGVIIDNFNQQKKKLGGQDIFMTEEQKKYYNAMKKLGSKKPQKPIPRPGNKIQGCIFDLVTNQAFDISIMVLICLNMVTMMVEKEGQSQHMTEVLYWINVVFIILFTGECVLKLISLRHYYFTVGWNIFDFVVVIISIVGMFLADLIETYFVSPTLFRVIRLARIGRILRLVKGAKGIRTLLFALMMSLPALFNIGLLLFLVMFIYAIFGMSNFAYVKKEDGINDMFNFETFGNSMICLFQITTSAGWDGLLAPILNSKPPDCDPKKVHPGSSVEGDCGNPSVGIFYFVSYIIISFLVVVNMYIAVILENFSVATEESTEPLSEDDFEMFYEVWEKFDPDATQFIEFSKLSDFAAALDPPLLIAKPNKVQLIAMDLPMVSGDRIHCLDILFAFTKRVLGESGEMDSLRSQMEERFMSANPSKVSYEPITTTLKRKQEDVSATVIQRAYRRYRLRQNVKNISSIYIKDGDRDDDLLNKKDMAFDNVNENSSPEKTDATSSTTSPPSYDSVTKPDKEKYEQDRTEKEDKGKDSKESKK
T2 sequence (Q9UQD0 whole entry): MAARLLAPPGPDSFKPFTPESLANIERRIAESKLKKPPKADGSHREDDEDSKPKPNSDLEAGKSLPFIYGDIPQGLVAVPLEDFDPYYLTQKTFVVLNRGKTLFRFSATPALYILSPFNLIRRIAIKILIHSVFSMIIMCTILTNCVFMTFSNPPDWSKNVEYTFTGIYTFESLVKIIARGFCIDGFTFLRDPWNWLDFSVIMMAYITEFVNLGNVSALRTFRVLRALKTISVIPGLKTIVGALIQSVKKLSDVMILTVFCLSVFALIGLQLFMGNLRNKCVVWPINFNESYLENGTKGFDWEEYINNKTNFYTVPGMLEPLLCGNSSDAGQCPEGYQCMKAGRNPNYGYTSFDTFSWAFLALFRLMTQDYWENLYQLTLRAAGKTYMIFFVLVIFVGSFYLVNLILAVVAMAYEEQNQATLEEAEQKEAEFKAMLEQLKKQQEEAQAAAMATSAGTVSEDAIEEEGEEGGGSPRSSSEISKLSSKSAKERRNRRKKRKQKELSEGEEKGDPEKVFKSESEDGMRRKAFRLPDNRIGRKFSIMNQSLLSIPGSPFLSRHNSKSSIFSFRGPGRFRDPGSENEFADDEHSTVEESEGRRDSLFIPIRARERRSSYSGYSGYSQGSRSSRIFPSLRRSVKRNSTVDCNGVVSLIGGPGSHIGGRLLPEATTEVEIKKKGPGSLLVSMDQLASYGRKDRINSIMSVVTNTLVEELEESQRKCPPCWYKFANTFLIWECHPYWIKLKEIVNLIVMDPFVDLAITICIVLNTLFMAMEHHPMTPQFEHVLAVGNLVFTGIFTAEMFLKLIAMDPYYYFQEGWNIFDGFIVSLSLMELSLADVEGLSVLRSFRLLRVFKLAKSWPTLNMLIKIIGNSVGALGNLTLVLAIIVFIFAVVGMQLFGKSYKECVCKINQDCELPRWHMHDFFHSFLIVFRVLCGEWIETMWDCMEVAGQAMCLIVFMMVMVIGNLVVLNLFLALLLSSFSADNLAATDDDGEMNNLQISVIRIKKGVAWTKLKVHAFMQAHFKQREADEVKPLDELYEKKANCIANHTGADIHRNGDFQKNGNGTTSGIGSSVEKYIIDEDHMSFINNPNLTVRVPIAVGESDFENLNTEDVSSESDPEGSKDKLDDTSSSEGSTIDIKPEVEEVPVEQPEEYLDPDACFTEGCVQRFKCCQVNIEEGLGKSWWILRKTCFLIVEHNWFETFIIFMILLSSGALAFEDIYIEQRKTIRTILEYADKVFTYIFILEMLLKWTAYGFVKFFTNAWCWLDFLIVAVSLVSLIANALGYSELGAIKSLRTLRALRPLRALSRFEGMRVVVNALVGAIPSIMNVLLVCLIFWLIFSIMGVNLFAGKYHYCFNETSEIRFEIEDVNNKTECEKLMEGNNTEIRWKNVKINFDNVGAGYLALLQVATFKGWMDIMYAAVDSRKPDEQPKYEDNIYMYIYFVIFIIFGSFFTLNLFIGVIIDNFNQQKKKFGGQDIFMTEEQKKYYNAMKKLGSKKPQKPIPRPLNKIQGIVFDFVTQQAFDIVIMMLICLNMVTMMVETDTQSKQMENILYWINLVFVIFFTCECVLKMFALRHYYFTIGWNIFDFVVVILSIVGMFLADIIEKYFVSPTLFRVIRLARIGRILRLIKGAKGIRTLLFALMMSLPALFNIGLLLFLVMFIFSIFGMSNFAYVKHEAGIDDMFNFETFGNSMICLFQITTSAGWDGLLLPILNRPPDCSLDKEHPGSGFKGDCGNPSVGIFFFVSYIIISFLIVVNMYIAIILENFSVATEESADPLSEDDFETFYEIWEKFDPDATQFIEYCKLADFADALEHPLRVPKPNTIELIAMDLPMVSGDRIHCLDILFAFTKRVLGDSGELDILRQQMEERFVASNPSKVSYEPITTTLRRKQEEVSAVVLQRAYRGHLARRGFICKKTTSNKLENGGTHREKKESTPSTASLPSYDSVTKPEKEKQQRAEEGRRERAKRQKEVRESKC

Sequence | blockage of the NaV1.7 sodium channel [1] | peak current density, treatment (text of b104) ([2]; 500 nM peptide, control 194.86, n=8, treatment n=7, sentence cites FIG. 14A-C) | effect on NaV1.6 currents [2] | effect on NaV1.6 currents ([2]; listed as peptide 8) | Peak current density, Nav1.6 (Treatment) ([2]; 500 nM peptide) | effect on NaV1.5 currents [3] | effect on NaV1.6 currents ([2]; listed as peptide 3) | effect on NaV1.6 currents ([2]; listed as peptide 1)
DCLGFMRKCLSTTDLDDDWNCCRPNLVCSRTHKWCKYVF (Synthetic Peptide 8) | substantial blockage | 104.78 | no effects | no statistically significant effect | 59.75 ± 5.4 (6)^NS | no effects | – | –
DCLGLFRKCIPDMLKCCRFNLVCSRLHKWCKYVF (Synthetic Peptide 3) | substantial blockage | – | suppressed | – | 25.32 ± 4.1 (6)^b | suppressed | suppresses | –
IGEKVTIRLITSTNINDDFNIYQQKPGEPPKLL (Synthetic Peptide 7) | substantial blockage | – | potentiates | – | 121.14 ± 16.6 (10)^c | no effects | – | –
SDEIPATFGGGTDAGL (Synthetic Peptide 1) | substantial blockage | – | suppressed | – | 25.65 ± 5.2 (13)^a | no effects | – | suppresses
